Reference: US20120077731A1 (Ablynx, published 2012)

What was measured:
IL-27B = target: T1, IL-27B (UniProt Q14213 21-229, limits assumed); experiment: competitive binding ELISA, similar setup (results not shown)
T1 sequence (looked up): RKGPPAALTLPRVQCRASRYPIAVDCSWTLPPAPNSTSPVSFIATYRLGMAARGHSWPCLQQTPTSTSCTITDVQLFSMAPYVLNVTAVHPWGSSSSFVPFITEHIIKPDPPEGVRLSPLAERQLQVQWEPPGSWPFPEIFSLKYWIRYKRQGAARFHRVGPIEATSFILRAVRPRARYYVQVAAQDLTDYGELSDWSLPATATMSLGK

CLF-1/CLC = target: T2, CLF-1/CLC (UniProt O75462 38-422; Q9UBD9 28-225, limits assumed); experiment: as above
T2 sequence (looked up) 1: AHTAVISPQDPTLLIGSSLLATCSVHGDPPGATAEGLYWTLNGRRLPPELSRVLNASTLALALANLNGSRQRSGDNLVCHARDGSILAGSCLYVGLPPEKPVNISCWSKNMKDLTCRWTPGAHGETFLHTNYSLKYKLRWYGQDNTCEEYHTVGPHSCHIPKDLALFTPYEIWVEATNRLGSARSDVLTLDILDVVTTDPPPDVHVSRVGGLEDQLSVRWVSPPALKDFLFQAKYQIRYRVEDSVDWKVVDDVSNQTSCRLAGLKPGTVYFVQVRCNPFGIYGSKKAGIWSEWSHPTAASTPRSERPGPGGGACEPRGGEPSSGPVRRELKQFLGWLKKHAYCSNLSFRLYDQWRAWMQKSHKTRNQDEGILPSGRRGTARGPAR
T2 sequence (looked up) 2: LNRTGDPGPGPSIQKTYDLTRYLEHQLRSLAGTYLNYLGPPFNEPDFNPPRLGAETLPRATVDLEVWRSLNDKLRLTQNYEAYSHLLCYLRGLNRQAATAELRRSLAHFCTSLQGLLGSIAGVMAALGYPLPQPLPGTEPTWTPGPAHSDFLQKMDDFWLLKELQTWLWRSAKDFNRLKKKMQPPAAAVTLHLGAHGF

Cyno plasma sIL-6R [1] = target: T3, Cyno plasma sIL-6R (cynomolgus monkey, UniProt A0A2K5WN54 60-396); experiment: plasma potency ELISA, human against cyno plasma
T3 construct: also called cynomolgus sIL-6R
T3 sequence: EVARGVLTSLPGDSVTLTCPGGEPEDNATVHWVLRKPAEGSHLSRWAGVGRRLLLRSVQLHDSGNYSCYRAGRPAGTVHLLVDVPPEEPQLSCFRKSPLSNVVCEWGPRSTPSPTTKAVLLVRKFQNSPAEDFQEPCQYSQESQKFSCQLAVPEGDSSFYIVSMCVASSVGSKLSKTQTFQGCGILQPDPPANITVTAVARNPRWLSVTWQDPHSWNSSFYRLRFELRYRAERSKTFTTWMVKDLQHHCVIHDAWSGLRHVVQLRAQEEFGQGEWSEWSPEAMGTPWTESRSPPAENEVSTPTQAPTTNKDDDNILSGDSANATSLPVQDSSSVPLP

Human plasma sIL-6R = target: T4, Human plasma sIL-6R (human, UniProt P08887 20-355, limits assumed); experiment: plasma potency ELISA, human plasma, normal IL-6 (EC50)
T4 construct: also called plasma-derived human IL-6R
T4 sequence (looked up): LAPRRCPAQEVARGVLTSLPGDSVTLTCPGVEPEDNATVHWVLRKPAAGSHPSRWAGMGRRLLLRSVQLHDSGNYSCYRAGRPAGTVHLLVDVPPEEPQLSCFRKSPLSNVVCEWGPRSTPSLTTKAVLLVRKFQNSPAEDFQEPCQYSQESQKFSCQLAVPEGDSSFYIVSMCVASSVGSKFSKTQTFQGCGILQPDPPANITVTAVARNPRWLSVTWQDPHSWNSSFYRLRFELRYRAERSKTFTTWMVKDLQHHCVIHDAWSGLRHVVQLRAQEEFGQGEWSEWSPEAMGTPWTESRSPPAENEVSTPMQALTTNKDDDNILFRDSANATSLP

[2] = target: T5, Human membrane IL-6R on cells (human, UniProt P08887 20-468); experiment: flow cytometry, human PBL, monocytes donor 2
T5 construct: whole, on cells; also called cell-surface expressed human IL-6R
T5 sequence (looked up): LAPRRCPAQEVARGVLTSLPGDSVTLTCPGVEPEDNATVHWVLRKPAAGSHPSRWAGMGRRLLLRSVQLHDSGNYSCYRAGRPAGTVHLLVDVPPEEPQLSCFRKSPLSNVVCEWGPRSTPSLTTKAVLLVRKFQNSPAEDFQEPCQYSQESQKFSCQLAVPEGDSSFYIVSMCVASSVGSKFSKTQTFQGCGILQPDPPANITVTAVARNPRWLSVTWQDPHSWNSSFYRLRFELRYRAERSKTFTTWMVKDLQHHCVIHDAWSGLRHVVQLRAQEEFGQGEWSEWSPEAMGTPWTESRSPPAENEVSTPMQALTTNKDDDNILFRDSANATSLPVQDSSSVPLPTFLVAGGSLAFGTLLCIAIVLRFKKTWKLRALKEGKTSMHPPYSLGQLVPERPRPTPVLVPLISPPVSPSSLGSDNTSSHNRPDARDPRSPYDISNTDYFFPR
Protocol: The Nanobodies were incubated in EDTA-treated blood from 2 donors and bound Nanobody was detected by flow cytometry. Lymphocytes, monocytes and granulocytes were gated based on FSC/SSC properties (FIG. 40) and bound Nanobodies were detected in the PE channel.

Mouse IL-6R = target: T6, Mouse IL-6R (mouse, UniProt P22272 20-364, limits assumed); experiment: competition ELISA: IL6R20A11 (0.4 nM) pre-incubated with a series of recombinant mouse sIL-6R; free IL6R20A11 captured on biotinylated human sIL-6R on neutravidin
T6 construct: also called mouse sIL-6R
T6 sequence (looked up): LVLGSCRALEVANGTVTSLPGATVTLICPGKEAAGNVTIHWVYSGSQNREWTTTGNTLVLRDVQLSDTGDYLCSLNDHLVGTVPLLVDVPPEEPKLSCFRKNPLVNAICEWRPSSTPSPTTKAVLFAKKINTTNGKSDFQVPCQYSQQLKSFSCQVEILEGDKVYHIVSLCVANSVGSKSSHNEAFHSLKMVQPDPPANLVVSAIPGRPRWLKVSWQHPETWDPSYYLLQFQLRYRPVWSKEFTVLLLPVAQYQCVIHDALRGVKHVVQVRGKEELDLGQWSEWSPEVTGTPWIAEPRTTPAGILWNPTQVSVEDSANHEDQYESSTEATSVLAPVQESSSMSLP

Cyno plasma sIL-6R [3] = target: T3, Cyno plasma sIL-6R; experiment: plasma potency ELISA, cyno plasma

B1: PMP20A11 (VHH)
VHH: EVQLVESGGGLVQPGGSLRLSCAASGSVFKINVMAWYRQAPGKGRELVAGIISGGSTSYADSVKGRFTISRDNAKNTLYLQMNSLRPEDTAVYYCAFITTESDYDLGRRYWGQGTLVTVSS
notes: also called IL6R20A11; IL6R300; not shown: c-myc and (His)6 tags
For B1, the binding result (IL-27B) was “no binding (tested: 100 nM)”, the binding result (CLF-1/CLC) was “no binding (tested: 100 nM)” and the “Ratio (human/cyno) of IC50” value (Cyno plasma sIL-6R [1]) was 1.69. The IC50 (Human plasma sIL-6R) was 0.198 nM, the EC50 [2] was 4.78 nM and the binding result (Mouse IL-6R) was “no binding (tested: about 200 ng/mL (log conc 2.3))”. It also gave an IC50 (Cyno plasma sIL-6R [3]) of 0.117 nM.
